Laboratory results taken from paper PMC11602157, “ZNF512B binds RBBP4 via a variant NuRD interaction motif and aggregates chromatin in a NuRD complex-independent manner” (Nucleic Acids Research, 2024).

Assays:
[1] = test system: 4xUAS-tk-luc reporter in HEK293T cells; assay: Luciferase reporter assay; format: cell-based; conditions: GAL fusion, 72 h, three biological replicates
Method: Per well of a 6-well plate, 1.5 × 10^5 HEK293T cells were seeded and transfected on the next day using 1 μg of 4xUAS-tk-luc reporter plasmid, 0.5 μg GAL expression vector and 0.5 μg pCMV-lacZ vector for normalization. Cells were directly lysed in well after 72 h with 200 μl Lysis buffer (25 mM Tris/Cl pH 7.5, 8 mM MgCl2, 1 mM EDTA, 1% Triton™ X-100, 15% glycerin, 1 mM DTT) for 15 min at RT. Supernatants were used to measure luciferase activity by mixing 100 μl 1:1 with 90 mg/L D-Luciferin/0.8 mM ATP and quantifying emitted light after 5 s incubation with an Orion L plate reader (Titertek-Berthold). Values were normalized to β-galactosidase activity by adding 5 μL supernatant to 900 μl LacZ buffer (50 mM Na2HPO4, 10 mM KCl, 0.1 mM MgSO4, pH 7) and 100 μl 4 g/L OPNG/0.1 M KPO4. When a color change of the mixture occurred, absorbance at 420 nm was measured.

FLAG-tagged ZNF512B = assay: Oligomerization: GFP-Trap IP and FLAG immunoblot; format: binding; conditions: co-transfection of GFP- and FLAG-tagged ZNF512B constructs, HeLaK cells
Method: Preparation of DNase-digested cell extracts and immunoprecipitation was performed using GFP-Trap® Magnetic Particles M-270 (Chromotek) following the manufacturer’s protocol. In brief, cells were incubated for 30 min on ice with RIPA buffer (10 mM Tris/Cl pH 7.5, 150 mM NaCl, 0.5 mM EDTA, 0.1% SDS, 1% Triton™ X-100, 1% deoxycholate) supplemented with DNase I (75 Kunitz U/ml, Thermo Fisher Scientific) and MgCl2 (2.5 mM). After centrifugation at 17 000 × g for 10 min at 4°C, lysate was transferred to a fresh tube and mixed with Dilution buffer (10 mM Tris/Cl pH 7.5, 150 mM NaCl, 0.5 mM EDTA). Lysate was then incubated with GFP-Trap® Magnetic Particles M-270 rotating for 1 h at 4°C. For peptide competition, lysate was incubated with peptide solution rotating for 1 h at 4°C before incubation with beads. After incubation, beads were washed three times with Wash buffer (10 mM Tris/Cl pH 7.5, 150 mM NaCl, 0.05% Nonidet™ P-40 Substitute, 0.5 mM EDTA), and precipitated proteins were eluted by boiling beads for 5 min in 2× SDS-sample buffer. Eluates were compared to input material via semi-dry western blotting. Details on applied antibodies and peptides are listed in the Supplementary Data.

NuRD complex members = assay: lf-qMS after GFP-Trap IP; format: binding; conditions: GFP-Trap IP vs GFP
Method: Preparation of Micrococcal nuclease (MNase)-digested nuclear extracts was performed as previously described ([15–17],[32]). Briefly, nuclei were isolated by incubation with PBS containing 0.3% Triton™ X-100 for 10 min at 4°C and washed in PBS, before being resolved in 500 μl freshly prepared Ex100 buffer (10 mM HEPES pH 7.6, 100 mM NaCl, 1.5 mM MgCl2, 0.5 mM EGTA, 10% glycerol, 10 mM β-glycerol phosphate, 1 mM Dithiothreitol (DTT), 2 mM CaCl2). Chromatin was then digested with 1.5 U MNase (sufficient for 4 × 10^7 cells, Sigma-Aldrich) for 20 min at 26°C. Digestion was stopped by adding 10 mM EGTA and transferring the sample to 4°C. […]
For label-free quantitative mass spectrometry (lf-qMS), precipitated proteins were eluted by incubation of beads with Elution Buffer (2 M urea, 50 mM Tris/Cl pH 7.5, 2 mM DTT, 20 μg/ml Trypsin Gold [Promega]) for 30 min at 37°C shaking at 1400 rpm in the dark. […]
After tryptic digest (see MNase IP), peptides were desalted on StageTips ([36]) and analysed by nanoflow liquid chromatography on an EASY-nLC 1000 system (Thermo Fisher Scientific) coupled online to a Q Exactive Plus mass spectrometer (Thermo Fisher Scientific). […]
The raw files were processed with MaxQuant ([37]) (version 1.6.5.0) against a human uniprot database (81194 entries). […] The match between run option and the LFQ quantitation were activated. […]

B1: ZNF512B: zinc finger protein 512B; GAL-ZNF512B in the reporter assay, GFP-/FLAG-tagged in pull-downs (protein)
chain: MTDPFCVGGRRLPGSSKSGPGKDGSRKEVRLPMLHDPPKMGMPVVRGGQTVPGQAPLCFDPGSPASDKTEGKKKGRPKAENQALRDIPLSLMNDWKDEFKAHSRVKCPNSGCWLEFPSIYGLKYHYQRCQGGAISDRLAFPCPFCEAAFTSKTQLEKHRIWNHMDRPLPASKPGPISRPVTISRPVGVSKPIGVSKPVTIGKPVGVSKPIGISKPVSVGRPMPVTKAIPVTRPVPVTKPVTVSRPMPVTKAMPVTKPITVTKSVPVTKPVPVTKPITVTKLVTVTKPVPVTKPVTVSRPIVVSKPVTVSRPIAISRHTPPCKMVLLTRSENKAPRATGRNSGKKRAADSLDTCPIPPKQARPENGEYGPSSMGQSSAFQLSADTSSGSLSPGSRPSGGMEALKAAGPASPPEEDPERTKHRRKQKTPKKFTGEQPSISGTFGLKGLVKAEDKARVHRSKKQEGPGPEDARKKVPAAPITVSKEAPAPVAHPAPGGPEEQWQRAIHERGEAVCPTCNVVTRKTLVGLKKHMEVCQKLQDALKCQHCRKQFKSKAGLNYHTMAEHSAKPSDAEASEGGEQEERERLRKVLKQMGRLRCPQEGCGAAFSSLMGYQYHQRRCGKPPCEVDSPSFPCTHCGKTYRSKAGHDYHVRSEHTAPPPEEPTDKSPEAEDPLGVERTPSGRVRRTSAQVAVFHLQEIAEDELARDWTKRRMKDDLVPETARLNYTRPGLPTLNPQLLEAWKNEVKEKGHVNCPNDCCEAIYSSVSGLKAHLASCSKGAHLAGKYRCLLCPKEFSSESGVKYHILKTHAENWFRTSADPPPKHRSQDSLVPKKEKKKNLAGGKKRGRKPKERTPEEPVAKLPPRRDDWPPGCRDKGARGSTGRKVGVSKAPEK
modifications: left off: GFP, end not stated, kept
repression of luciferase reporter [1]: strong repression effect | oligomer formation (FLAG-tagged ZNF512B): able to form oligomers that are strictly dependent on the ZF domains | binding to NuRD complex members by lf-qMS (NuRD complex members): NIM-dependent binding of ZNF512B to all known NuRD complex members was observed
